Our source for the binding result and Kd values is patent publication US20200087367A1 (ACCELERON PHARMA, published 2020).

To fix the notation:
B7: BMP5 (ligand, human, UniProt P22003 317-454, looked up)
chain: AANKRKNQNRNKSSSHQDSSRMSSVGDYNTSEQKQACKKHELYVSFRDLGWQDWIIAPEGYAAFYCDGECSFPLNAHMNATNHAIVQTLVHLMFPDHVPKPCCAPTKLNAISVLYFDDSSNVILKKYRNMVVRSCGCH

In experiment [1] the target is T1, BMP9 (human, UniProt Q9UK05 320-429).
T1 construct: also called hBMP-9; hBMP9
T1 sequence (looked up): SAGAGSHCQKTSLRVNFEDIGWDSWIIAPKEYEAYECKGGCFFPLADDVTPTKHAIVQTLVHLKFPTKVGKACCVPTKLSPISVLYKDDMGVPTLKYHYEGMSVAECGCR
Briefly: SPR, captured hENG-hFc, soluble BMP9; '-' = Binding undetectable. As for the experimental part:
(§1) SPR methodology was used to screen these hENG-hFc protein variants for high-affinity binding to human BMP9 and BMP10. In these experiments, captured hENG-hFc proteins were exposed to soluble BMP9 or BMP10 at 100 nM each.
(Surface plasmon resonance follows binding to a sensor surface in real time, without labels.)

Experiment [2] addresses T2, BMP10 (human, UniProt O95393 317-424).
T2 construct: also called hBMP-10; hBMP10
T2 sequence: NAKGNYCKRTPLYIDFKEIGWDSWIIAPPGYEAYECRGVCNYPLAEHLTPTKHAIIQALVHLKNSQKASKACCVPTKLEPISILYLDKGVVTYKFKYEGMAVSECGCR
Briefly: SPR, captured hENG-hFc, soluble BMP10; '-' = Binding undetectable. As for the experimental part:
as §1

The target of experiment [3] is B7. Briefly: SPR (Biacore), ligand amine-coupled to CM5 chip, Fc fusion injected.
In experiment [4] the target is T3, hENG(26-437)-hFc (human, UniProt P17813 26-437).
T3 construct: HEK 293, purified; not shown: linker and human IgG1 Fc domain
T3 sequence: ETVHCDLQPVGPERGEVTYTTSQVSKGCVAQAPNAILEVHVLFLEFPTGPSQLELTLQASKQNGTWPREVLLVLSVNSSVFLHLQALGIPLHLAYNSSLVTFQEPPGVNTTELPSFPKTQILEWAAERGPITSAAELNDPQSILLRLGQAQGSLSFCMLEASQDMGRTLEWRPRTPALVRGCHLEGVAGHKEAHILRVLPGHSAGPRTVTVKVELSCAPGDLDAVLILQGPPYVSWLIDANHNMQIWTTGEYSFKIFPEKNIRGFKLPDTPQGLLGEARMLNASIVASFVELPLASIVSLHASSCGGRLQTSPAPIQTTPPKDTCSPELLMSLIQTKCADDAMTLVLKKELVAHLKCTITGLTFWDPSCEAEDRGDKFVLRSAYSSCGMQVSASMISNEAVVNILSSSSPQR
Briefly: SPR ligand screen; '-' = Binding undetectable.

The target of experiment [5] is T4, hENG(26-586) (human, UniProt P17813 26-586).
T4 construct: Bought protein, a human variant with no Fc domain; also called R&D Systems, catalog #1097-EN
T4 sequence: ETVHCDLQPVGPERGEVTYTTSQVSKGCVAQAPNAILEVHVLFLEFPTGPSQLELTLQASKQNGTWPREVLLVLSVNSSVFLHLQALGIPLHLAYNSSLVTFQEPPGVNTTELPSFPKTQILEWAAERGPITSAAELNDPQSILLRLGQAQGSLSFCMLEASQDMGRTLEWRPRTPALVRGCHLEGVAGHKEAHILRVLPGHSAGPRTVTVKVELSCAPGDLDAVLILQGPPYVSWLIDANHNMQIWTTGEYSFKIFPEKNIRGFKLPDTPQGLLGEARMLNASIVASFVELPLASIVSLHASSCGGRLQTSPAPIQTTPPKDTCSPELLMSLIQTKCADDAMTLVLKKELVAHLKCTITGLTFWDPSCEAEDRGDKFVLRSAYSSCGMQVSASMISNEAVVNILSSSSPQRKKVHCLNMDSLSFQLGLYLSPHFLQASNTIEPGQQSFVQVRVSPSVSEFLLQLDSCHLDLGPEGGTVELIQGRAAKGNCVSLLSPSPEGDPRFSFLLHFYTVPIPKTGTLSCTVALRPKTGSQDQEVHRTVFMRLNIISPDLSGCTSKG
Nature of the experiment: SPR (Biacore), immobilized hENG(26-586), soluble ligand; '-' = binding undetectable. The source says:
Considered a co-receptor, ENG is widely thought to function by facilitating the binding of TGF-β1 and -3 to multi-protein complexes of type I and type II receptors. To investigate the possibility of direct ligand binding by isolated ENG, surface plasmon resonance (SPR) methodology (Biacore™ instrument) was used to screen for binding of captured proteins comprising the full-length extracellular domain of ENG to a variety of soluble human TGF-β family ligands.

The target of experiment [6] is T5, BMP10pro(22-315)-mFc (human, UniProt O95393 22-315).
T5 construct: also called mouse Fc equivalent construct; not shown: optional linker and mouse immunoglobulin G1 Fc domain
T5 sequence: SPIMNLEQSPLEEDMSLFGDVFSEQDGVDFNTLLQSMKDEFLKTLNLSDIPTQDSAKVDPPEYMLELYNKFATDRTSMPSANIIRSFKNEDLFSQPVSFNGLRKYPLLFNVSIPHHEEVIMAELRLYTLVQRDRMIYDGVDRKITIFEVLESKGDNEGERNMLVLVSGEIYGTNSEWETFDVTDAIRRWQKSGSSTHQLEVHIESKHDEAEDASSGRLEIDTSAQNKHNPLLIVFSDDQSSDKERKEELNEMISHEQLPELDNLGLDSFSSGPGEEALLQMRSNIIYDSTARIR
Briefly: SPR (Biacore), BMP10pro-Fc captured by anti-Fc antibody, ligand injected. As for the experimental part:
(§2) The BMP10pro-Fc proteins were separately was captured onto the system using an anti-Fc antibody, and ligands were injected and allowed to flow over the captured receptor protein. […] The mouse Fc equivalent constructs behaved similarly. […] The affinity of BMP10pro(22-315)-hFc for BMP3b was not assessed.

The target in experiment [7] is T6, BMP10pro(22-312)-mFc (human, UniProt O95393 22-312).
T6 construct: also called mouse Fc equivalent construct; not shown: optional linker and mouse immunoglobulin G1 Fc domain
T6 sequence: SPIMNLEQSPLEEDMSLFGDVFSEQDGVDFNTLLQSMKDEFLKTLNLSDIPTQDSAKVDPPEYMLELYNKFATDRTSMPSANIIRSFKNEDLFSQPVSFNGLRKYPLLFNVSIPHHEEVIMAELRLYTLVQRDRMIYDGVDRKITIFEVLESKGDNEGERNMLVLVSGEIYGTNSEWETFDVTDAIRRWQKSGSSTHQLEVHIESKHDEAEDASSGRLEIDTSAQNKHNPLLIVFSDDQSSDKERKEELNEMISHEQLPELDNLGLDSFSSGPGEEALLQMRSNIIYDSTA
Described as above. As for the experimental part:
as §2

The target of experiment [8] is T2, BMP10. Briefly: SPR (Biacore), ligand amine-coupled to CM5 chip, Fc fusion injected.
Experiment [9] has as its target T1, BMP9. The experiment is described as above.
The target of experiment [10] is T7, BMP6 (human, UniProt P22004 382-513, limits assumed).
T7 sequence (looked up): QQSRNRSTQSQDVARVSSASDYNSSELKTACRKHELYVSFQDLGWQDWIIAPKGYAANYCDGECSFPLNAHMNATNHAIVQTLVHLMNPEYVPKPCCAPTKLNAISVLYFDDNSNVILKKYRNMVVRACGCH
The description is as above.

B1: hENG(258-346)-hFc (Fc fusion)
chain: YVSWLIDANHNMQIWTTGEYSFKIFPEKNIRGFKLPDTPQGLLGEARMLNASIVASFVELPLASIVSLHASSCGGRLQTSPAPIQTTPP
notes: HEK 293, purified; not shown: linker and human IgG1 Fc domain
For B1, the binding result in experiment [1] and in experiment [2] was “no binding (tested: 100 nM)” each time.

B2: ActRIIB-mFc (Fc fusion, not shown: a dimerising Fc or GST)
chain: GRGEAETRECIYYNANWELERTNQSGLERCEGEQDKRLHCYASWRNSSGTIELVKKGCWLDDFNCYDRQECVATEENPQVYFCCCEGNFCNERFTHLPEAGGPEVTYEPPPTAPT
As for B2, in experiment [3], the binding result is recorded as “binds”.

B3: activin A (ligand, human, UniProt P08476 311-426, looked up)
chain: GLECDGKVNICCKKQFFVSFKDIGWNDWIIAPSGYHANYCEGECPSHIAGTSGSSLSFHSTVINHYRMRGHSPFANLKSCCVPTKLRPMSMLYYDDGQNIIKKDIQNMIVEECGCS
notes: also called hActivin A
Consider B3, for which the figures for the binding result in experiment [4] and in experiment [5] were “no binding (tested: 100 nM)” and “no binding (tested: 25 nM)”, respectively.

B4: TGF-β3 (ligand, human, UniProt P10600 301-412, looked up)
chain: ALDTNYCFRNLEENCCVRPLYIDFRQDLGWKWVHEPKGYYANFCSGPCPYLRSADTTHSTVLGLYNTLNPEASASPCCVPQDLEPLTILYYVGRTPKVEQLSNMVVKSCKCS
notes: also called hTGF-β3
On to B4, for which the binding result is reported as “no binding (tested: 50 nM)” in experiment [4] and “no binding (tested: 25 nM)” in experiment [5].

B5: BMP7 (ligand, human, UniProt P18075 293-431, looked up)
chain: STGSKQRSQNRSKTPKNQEALRMANVAENSSSDQRQACKKHELYVSFRDLGWQDWIIAPEGYAAYYCEGECAFPLNSYMNATNHAIVQTLVHFINPETVPKPCCAPTQLNAISVLYFDDSSNVILKKYRNMVVRACGCH
notes: also called hBMP-7
For B5, the binding result is listed as “no binding (tested: 100 nM)” in experiment [4] and “no binding (tested: 25 nM)” in [5].

B6: hENG(360-457)-hFc (Fc fusion)
chain: QTKCADDAMTLVLKKELVAHLKCTITGLTFWDPSCEAEDRGDKFVLRSAYSSCGMQVSASMISNEAVVNILSSSSPQRKKVHCLNMDSLSFQLGLYLS
notes: Expressed in COS cells, not purified; not shown: linker and human IgG1 Fc domain
For the molecule B6, the binding result in experiment [1] and in experiment [2] was “no binding (tested: 100 nM)” in each case.
B7: the binding result in [6] and in experiment [7] was “binds” throughout.

B8: BMP2 (ligand, human, UniProt P12643 283-396, looked up)
chain: QAKHKQRKRLKSSCKRHPLYVDFSDVGWNDWIVAPPGYHAFYCHGECPFPLADHLNSTNHAIVQTLVNSVNSKIPKACCVPTELSAISMLYLDENEKVVLKNYQDMVVEGCGCR
notes: also called hBMP-2
B8: the values for the binding result in experiment [4] and in experiment [5] were “no binding (tested: 100 nM)” and “no binding (tested: 25 nM)”, respectively.

B9: hBMP-2/7 (ligand, human)
chain 1: QAKHKQRKRLKSSCKRHPLYVDFSDVGWNDWIVAPPGYHAFYCHGECPFPLADHLNSTNHAIVQTLVNSVNSKIPKACCVPTELSAISMLYLDENEKVVLKNYQDMVVEGCGCR
chain 2: STGSKQRSQNRSKTPKNQEALRMANVAENSSSDQRQACKKHELYVSFRDLGWQDWIIAPEGYAAYYCEGECAFPLNSYMNATNHAIVQTLVHFINPETVPKPCCAPTQLNAISVLYFDDSSNVILKKYRNMVVRACGCH
With B9, the results for the binding result in experiment [4] and in [5] were “no binding (tested: 100 nM)” and “no binding (tested: 25 nM)”, respectively.

B10: ActRIIB-hFc (Fc fusion)
chain: GRGEAETRECIYYNANWELERTNQSGLERCEGEQDKRLHCYASWRNSSGTIELVKKGCWLDDFNCYDRQECVATEENPQVYFCCCEGNFCNERFTHLPEAGGPEVTYEPPPTAPTGGGTHTCPPCPAPELLGGPSVFLFPPKPKDTLMISRTPEVTCVVVDVSHEDPEVKFNWYVDGVEVHNAKTKPREEQYNSTYRVVSVLTVLHQDWLNGKEYKCKVSNKALPVPIEKTISKAKGQPREPQVYTLPPSREEMTKNQVSLTCLVKGFYPSDIAVEWESNGQPENNYKTTPPVLDSDGSFFLYSKLTVDKSRWQQGNVFSCSVMHEALHNHYTQKSLSLSPGK
notes: Extracellular domain of human ActRIIB, linker, human Fc
One may read the Kd as the constant that tells how readily two partners part at equilibrium. Low values mean tighter binding, high ones weaker binding. In the case of B10, the Kd in experiment [8] was 0.0173 nM; in experiment [9] it was 0.0335 nM; in experiment [10] it was 0.164 nM; in experiment [3] it was 2.92 nM.

B11: hENG(360-437)-hFc (Fc fusion)
chain: QTKCADDAMTLVLKKELVAHLKCTITGLTFWDPSCEAEDRGDKFVLRSAYSSCGMQVSASMISNEAVVNILSSSSPQR
notes: as for B6
For the molecule B11, the binding result in [1] and in experiment [2] was “no binding (tested: 100 nM)” in each case.

B12: TGF-β2 (ligand, human, UniProt P61812 303-414, looked up)
chain: ALDAAYCFRNVQDNCCLRPLYIDFKRDLGWKWIHEPKGYNANFCAGACPYLWSSDTQHSRVLSLYNTINPEASASPCCVSQDLEPLTILYYIGKTPKIEQLSNMIVKSCKCS
notes: also called hTGF-β2
Take B12: the binding result in [4] is reported as “no binding (tested: 100 nM)”; in experiment [5] it was “no binding (tested: 25 nM)”.
